# From patent US20040006018A1 (Genentech, published 2004)
# Tests used:
# [1] = biological target: T1, Mouse LIF (leukemia inhibitory factor) (mouse, UniProt P09056 24-203); test: binding of LIF to His-tagged soluble LIF receptor on Ni-NTA agarose
# [2] = biological target: T1, Mouse LIF (leukemia inhibitory factor); test: 0.042 nM 125I-mouse LIF on M1 cells competed by unlabeled LIF, Scatchard, one-site fit
# Excerpt: (§1) Shown are competition and Scatchard (insert) plots of the data.
# [3] = biological target: T1, Mouse LIF (leukemia inhibitory factor); test: 0.047 nM 125I-mouse CT-1 on M1 cells competed by unlabeled LIF, Scatchard, one-site fit
# Excerpt: as §1
# [4] = biological target: T1, Mouse LIF (leukemia inhibitory factor); test: Scatchard analysis of binding to M1 cells, summary over both labeled ligands
# [5] = biological target: T1, Mouse LIF (leukemia inhibitory factor); test: competition for 125I-human LIF binding to Hela cells
binder,measurement,setting,value
"Soluble mouse LIF receptor (extracellular domain, amino acids 1-826, with a C-terminal tag of 6 histidine residues) (receptor, range 44-826; Expressed in human 293 cells, purified on Ni-NTA agarose; single band of 120 kDa; also called smLIFR; soluble LIF receptor) LKRGVQDLKCTTNNMRVWDCTWPAPLGVSPGTVKDICIKDRFHSCHPLETTNVKIPALSPGDHEVTINYLNGFQSKFTLNEKDVSLIPETPEILDLSADFFTSSLLLKWNDRGSALPHPSNATWEIKVLQNPRTEPVALVLLNTMLSGKDTVQHWNWTSDLPLQCATHSVSIRWHIDSPHFSGYKEWSDWSPLKNISWIRNTETNVFPQDKVVLAGSNMTICCMSPTKVLSGQIGNTLRPLIHLYGQTVAIHILNIPVSENSGTNIIFITDDDVYGTVVFAGYPPDVPQKLSCETHDLKEIICSWNPGRITGLVGPRNTEYTLFESISGKSAVFHRIEGLTNETYRLGVQMHPGQEIHNFTLTGRNPLGQAQSAVVINVTERVAPHDPTSLKVKDINSTVVTFSWYLPGNFTKINLLCQIEICKANSKKEVRNATIRGAEDSTYHVAVDKLNPYTAYTFRVRCSSKTFWKWSRWSDEKRHLTTEATPSKGPDTWREWSSDGKNLIVYWKPLPINEANGKILSYNVSCSLNEETQSVLEIFDPQHRAEIQLSKNDYIISVVARNSAGSSPPSKIASMEIPNDDITVEQAVGLGNRIFLTWRHDPNMTCDYVIKWCNSSRSEPCLLDWRKVPSNSTETVIESDQFQPGVRYNFYLYGCTNQGYQLLRSIIGYVEELAPIVAPNFTVEDTSADSILVKWDDIPVEELRGFLRGYLFYFQKGERDTPKTRSLEPHHSDIKLKNITDISQKTLRIADLQGKTSYHLVLRAYTHGGLGPEKSMFVVTKEHHHHHH",Kd,[1],1500 pM
"Mouse LIF receptor on mouse M1 cells (LIF receptor complex with gp130) (receptor, whole, on cells; Endogenous receptor on M1 cells; also called LIFRβ) chain 1: LKRGVQDLKCTTNNMRVWDCTWPAPLGVSPGTVKDICIKDRFHSCHPLETTNVKIPALSPGDHEVTINYLNGFQSKFTLNEKDVSLIPETPEILDLSADFFTSSLLLKWNDRGSALPHPSNATWEIKVLQNPRTEPVALVLLNTMLSGKDTVQHWNWTSDLPLQCATHSVSIRWHIDSPHFSGYKEWSDWSPLKNISWIRNTETNVFPQDKVVLAGSNMTICCMSPTKVLSGQIGNTLRPLIHLYGQTVAIHILNIPVSENSGTNIIFITDDDVYGTVVFAGYPPDVPQKLSCETHDLKEIICSWNPGRITGLVGPRNTEYTLFESISGKSAVFHRIEGLTNETYRLGVQMHPGQEIHNFTLTGRNPLGQAQSAVVINVTERVAPHDPTSLKVKDINSTVVTFSWYLPGNFTKINLLCQIEICKANSKKEVRNATIRGAEDSTYHVAVDKLNPYTAYTFRVRCSSKTFWKWSRWSDEKRHLTTEATPSKGPDTWREWSSDGKNLIVYWKPLPINEANGKILSYNVSCSLNEETQSVLEIFDPQHRAEIQLSKNDYIISVVARNSAGSSPPSKIASMEIPNDDITVEQAVGLGNRIFLTWRHDPNMTCDYVIKWCNSSRSEPCLLDWRKVPSNSTETVIESDQFQPGVRYNFYLYGCTNQGYQLLRSIIGYVEELAPIVAPNFTVEDTSADSILVKWDDIPVEELRGFLRGYLFYFQKGERDTPKTRSLEPHHSDIKLKNITDISQKTLRIADLQGKTSYHLVLRAYTHGGLGPEKSMFVVTKENSVGLIIAILIPVAVAVIVGVVTSILCYRKREWIKETFYPDIPNPENCKALQFQKSVCEGSNALKTLEMNPCTPNNVEVLESRSIVPKIEDTEIISPVAERPGERSEVDPENHVVVSYCPPIIEEEITNPAADEVGGASQVVYIDVQSMYQPQAKAEEEQDVDPVVVAGYKPQMRLPISPAVEDTAAEDEEGKTAGYRPQANVNTWNLVSPDSPRSTDSNNEVVSFGSPCSINSRQFLIPPKDEDSPKSNGGGWSFTNFFQNKPND chain 2: QLLEPCGYIYPEFPVVQRGSNFTAICVLKEACLQHYYVNASYIVWKTNHAAVPREQVTVINRTTSSVTFTDVVLPSVQLTCNILSFGQIEQNVYGVTMLSGFPPDKPTNLTCIVNEGKNMLCQWDPGRETYLETNYTLKSEWATEKFPDCQSKHGTSCMVSYMPTYYVNIEVWVEAENALGKVSSESINFDPVDKVKPTPPYNLSVTNSEELSSILKLSWVSSGLGGLLDLKSDIQYRTKDASTWIQVPLEDTMSPRTSFTVQDLKPFTEYVFRIRSIKDSGKGYWSDWSEEASGTTYEDRPSRPPSFWYKTNPSHGQEYRSVRLIWKALPLSEANGKILDYEVILTQSKSVSQTYTVTGTELTVNLTNDRYVASLAARNKVGKSAAAVLTIPSPHVTAAYSVVNLKAFPKDNLLWVEWTPPPKPVSKYILEWCVLSENAPCVEDWQQEDATVNRTHLRGRLLESKCYQITVTPVFATGPGGSESLKAYLKQAAPARGPTVRTKKVGKNEAVLAWDQIPVDDQNGFIRNYSISYRTSVGKEMVVHVDSSHTEYTLSSLSSDTLYMVRMAAYTDEGGKDGPEFTFTTPKFAQGEIEAIVVPVCLAFLLTTLLGVLFCFNKRDLIKKHIWPNVPDPSKSHIAQWSPHTPPRHNFNSKDQMYSDGNFTDVSVVEIEANNKKPCPDDLKSVDLFKKEKVSTEGHSSGIGGSSCMSSSRPSISSNEENESAQSTASTVQYSTVVHSGYRHQVPSVQVFSRSESTQPLLDSEERPEDLQLVDSVDGGDEILPRQPYFKQNCSQPEACPEISHFERSNQVLSGNEEDFVRLKQQQVSDHISQPYGSEQRRLFQEGSTADALGTGADGQMERFESVGMETTIDEEIPKSYLPQTVRQGGYMPQ",Kd,[2],260 pM
same,Kd,[3],190 pM
same,Kd,[4],~200 pM
"Human LIF receptor on human Hela cells (receptor, whole, on cells; Endogenous receptor on cells; other subunits (gp130) not examined on these cells) QKKGAPHDLKCVTNNLQVWNCSWKAPSGTGRGTDYEVCIENRSRSCYQLEKTSIKIPALSHGDYEITINSLHDFGSSTSKFTLNEQNVSLIPDTPEILNLSADFSTSTLYLKWNDRGSVFPHRSNVIWEIKVLRKESMELVKLVTHNTTLNGKDTLHHWSWASDMPLECAIHFVEIRCYIDNLHFSGLEEWSDWSPVKNISWIPDSQTKVFPQDKVILVGSDITFCCVSQEKVLSALIGHTNCPLIHLDGENVAIKIRNISVSASSGTNVVFTTEDNIFGTVIFAGYPPDTPQQLNCETHDLKEIICSWNPGRVTALVGPRATSYTLVESFSGKYVRLKRAEAPTNESYQLLFQMLPNQEIYNFTLNAHNPLGRSQSTILVNITEKVYPHTPTSFKVKDINSTAVKLSWHLPGNFAKINFLCEIEIKKSNSVQEQRNVTIKGVENSSYLVALDKLNPYTLYTFRIRCSTETFWKWSKWSNKKQHLTTEASPSKGPDTWREWSSDGKNLIIYWKPLPINEANGKILSYNVSCSSDEETQSLSEIPDPQHKAEIRLDKNDYIISVVAKNSVGSSPPSKIASMEIPNDDLKIEQVVGMGKGILLTWHYDPNMTCDYVIKWCNSSRSEPCLMDWRKVPSNSTETVIESDEFRPGIRYNFFLYGCRNQGYQLLRSMIGYIEELAPIVAPNFTVEDTSADSILVKWEDIPVEELRGFLRGYLFYFGKGERDTSKMRVLESGRSDIKVKNITDISQKTLRIADLQGKTSYHLVLRAYTDGGVGPEKSMYVVTKENSVGLIIAILIPVAVAVIVGVVTSILCYRKREWIKETFYPDIPNPENCKALQFQKSVCEGSSALKTLEMNPCTPNNVEVLETRSAFPKIEDTEIISPVAERPEDRSDAEPENHVVVSYCPPIIEEEIPNPAADEAGGTAQVIYIDVQSMYQPQAKPEEEQENDPVGGAGYKPQMHLPINSTVEDIAAEEDLDKTAGYRPQANVNTWNLVSPDSPRSIDSNSEIVSFGSPCSINSRQFLIPPKDEDSPKSNGGGWSFTNFFQNKPND",binding result,[5],no binding
